The values that follow come from US12258605B2, “Alkane oxidation by modified hydroxylases” (The California Institute of Technology, priority 2005, dated 2025).

Assay type in all cases: biochemical
Data set [1] can be described thus: Reactions on alkanes, total turnovers (Table 18): hexane. As to conditions: hexane (6 C atoms); for % rel. act.: TTN normalized to the highest value of the variant's series; for TTN: total turnovers, standardized reaction conditions. As to the method:
(§1) Reactions on alkanes. Reactions with alkanes from pentane to decane were carried out at 3 mL-scale using 100 mM KPi pH 8.0 buffer containing 2% ethanol (to allow alkane solubilization) and purified protein. 2.5 mL KPi buffer were added with 60 μL of 90 mM alkane solution in ethanol (final conc.=1.8 mM), 150 μL enzyme solution at 1 μM (final conc.=50 nM), and 300 μL NADPH regeneration solution (100 units/mL isocitrate dehydrogenase, 70 mg/mL isocitrate, 1.5 mg/ml NADP^+). Vials were sealed and stirred for 24 hours at 4° C. 1 mL-aliquot of the reaction was removed, added with 10 μl internal standard (25 mM 1-bromohexane in ethanol), and extracted with 200 μl chloroform (30 sec vortexing, 1 min centrifugation at 10000 g). The organic phase was removed and analyzed by gas chromatography. Reactions with ethane, propane, and butane were carried out as described for longer alkanes with the only difference that alkane-saturated KPi buffer was used. Propane reactions with variants from HL5 and L9 libraries were performed on 1 mL-scale reaction using 20 nM enzyme to reduce oxygen limitation. Propane and butane reactions were analyzed by direct injection of reaction solution on the GC using 1-pentanol as internal standard. Ethane reaction products were functionalized (see below) and analyzed by GC using 1-butanol as internal standard. All measurements were performed in triplicate.
(§2) Products from alkane reactions were identified and quantified by gas chromatography using authentic standards and calibration curves with internal standards. For the reactions with alkanes from pentane to decane, GC analyses were carried out using a Shimadzu GC-17A gas chromatograph, Agilent HP5 column (30 m×0.32 mm×0.1 μm film), 1 μL injection, FID detector, and the following separation program: 250° C. inlet, 250° C. detector, 50° C. oven for 3 min, 5° C./min gradient to 100° C., 25° C./min gradient to 230° C., and 230° C. for 3 min. For butane and propane (TTN) reactions, GC analyses were carried out using a Hewlett-Packard 5890 Series II Plus gas chromatograph, Supelco SPB-1 column (60 m×0.52 mm×0.5 μm film), 0.5 μL injection, FID detector, and the following separation program: 250° C. inlet, 275° C. detector, 80° C. oven for 2 min, 10° C./min gradient to 110° C., 25° C./min gradient to 275° C., and 275° C. for 2.5 min. For ethane and propane (rate) reactions, analysis of reaction mixtures was carried out by derivatization to alkyl nitrites followed by GC-ECD analysis. For laurate, reaction product analysis was carried out by derivatization with N-methyl-N-trimethylsilylheptafluorobutyramide followed by extraction with hexane. Organic solutions were analyzed by FID-GC.
(§3) TTNs for each variant-substrate pair were determined using standardized reaction conditions (identical enzyme and substrate concentration, incubation time, cofactor regeneration system) (Table 18). TTN values were used to assess performance because TTN is a cumulative measure of both catalytic and coupling efficiency and because mutants were selected based on improvement in this property. To facilitate comparison among the variants, TTNs were normalized to the highest value in the series (MTN=Maximal Turnover Number) and plotted for the increasing-sized substrates (FIG. 38). A gradual shift of the enzyme's substrate preference during laboratory evolution is evident from these profiles. The marginal activity of wild-type BM3 on these substrates (MTN=150) is restricted to the long-chain alkanes, where it is a promiscuous function of BM3's high C12-C20 fatty acid hydroxylase activity. In the first evolutionary intermediates, substrate preference centers on medium-chain alkanes […], reflecting their selection for activity on octane. In 35E11, selected for activity on propane, preference still centers on C6-C8 alkanes but now extends towards the shorter ones, including propane. Propane activity becomes prevalent with the transition from variant ETS8 to 19A12. […]

Data set [2] can be described thus: Reactions on alkanes, total turnovers (Table 18): octane. The following applies: octane (8 C atoms); for % rel. act.: TTN normalized to the highest value of the variant's series; for TTN: total turnovers, standardized reaction conditions. As to the method:
as §1, §2, §3

The nature of data set [3]: Reactions on alkanes, total turnovers (Table 18): decane. The following applies: decane (10 C atoms); for % rel. act.: TTN normalized to the highest value of the variant's series; for TTN: total turnovers, standardized reaction conditions. As to the method: as §1, §2, §3
The nature of data set [4]: Reactions on alkanes, total turnovers (Table 18): butane. As to conditions: butane (4 C atoms); for TTN: total turnovers, standardized reaction conditions. How it is done: as §1, §2, §3
Data set [5] can be described thus: Chloromethane dehalogenation (Purpald detection of formaldehyde). The source says:
The dehalogenation reaction is based on the hydroxylation of the carbon atom carrying the halogen by a spontaneous (base catalyzed) alpha-elimination reaction which leads to the formation of an aldehyde or ketone depending on the starting haloalkane. The expected reaction mechanism for the dehalogenation of a general alpha-haloalkane is described by the scheme:
To test the feasibility of this approach, chloromethane was chosen as substrate for the dehalogenation reaction. Compared to other haloalkanes, chloromethane (CM) has the advantage to be moderately soluble in water (0.5 g/100 ml) and to lead to formaldehyde as end product of the hydroxylation/alpha-elimination reaction. Formaldehyde can be then readily detected by colorimetric reaction with Purpald as described previously. To test the reaction, two BM-3 mutants from later rounds of random mutagenesis, 35-E1141 and 20-D3, were incubated in the presence of CM and a cofactor regeneration system based on NADP^+, glucose-6-phosphate and glucose-6-phosphate dehydrogenase. Reactions with wild-type P450 BM-3 and without enzyme were included as controls.
The reaction was repeated in the presence of additional BM-3 mutants, including 1-8H, 1-12G2 and the wild-type P450 BM-3 in which A328 was substituted with valine (BM-3-A328V) (FIG. 27B). […] Wild-type BM-3 was substituted with other amino acid residues at position […].
The activity of BM-3-A328V on CM and other substrates such as HME, DME, and propane was further investigated by measuring product formation rate, cofactor consumption and coupling efficiency (Table 14). This mutant was also found to be capable to hydroxylate ethane to ethanol, although only for a total of about 5-10 turnovers. In Table 14 “consumption” rates are expressed as nmol NADPH/nmol enzyme/min and “product formation” rates are expressed as nmol product/nmol enzyme/min.

Data set [6] in a line: Reactions on alkanes, total turnovers (Table 18): pentane. The following applies: pentane (5 C atoms); for % rel. act.: TTN normalized to the highest value of the variant's series; for TTN: total turnovers, standardized reaction conditions. How it is done:
as §1, §2, §3

A short description of data set [7]: Reactions on alkanes, total turnovers (Table 18): heptane. The following applies: heptane (7 C atoms); for % rel. act.: TTN normalized to the highest value of the variant's series; for TTN: total turnovers, standardized reaction conditions. How it is done:
as §1, §2, §3

B1: 35-E11: P450 BM-3 variant, SEQ ID NO:7: 53-5H substitutions plus E464G and I710T (protein)
chain: TIKEMPQPKTFGELKNLPLLNTDKPVQALMKIADELGEIFKFEAPGCVTRYLSSQRLIKEACDESRFDKNLSQALKFFRDFSGDGLFTSWTHEINWKKAHNILLPSFSQQAMKGYHAMMVDIAVQLVQKWERLNADEHIEVSEDMTRLTLDTIGLCGFNYRFNSFYRDQPHPFIISMVRALDEVMNKLQRANPDDPAYDENKRQCQEDIKVMNDLVDKIIADRKARGEQSDDLLTQMLNGKDPETGEPLDDGNISYQIITFLIAGHETTSGLLSFALYFLVKNPHVLQKVVEEAARVLVDPVPSYKQVKQLKYVGMVLNEALRLWPTFPAFSLYAKEDTVLGGEYPLEKGDEVMVLIPQLHRDKTIWGDDVEEFRPERFENPSAIPQHAFKPFGNGQRACIGQQFALHEATLVLGMMLKHFDFEDHTNYELDIKETLTLKPEGFVVKAKSKKIPLGGIPSPSTGQSAKKVRKKAENAHNTPLLVLYGSNMGTAEGTARDLADIAMSKGFAPQVATLDSHAGNLPREGAVLIVTASYNGHPPDNAKQFVDWLDQASADEVKGVRYSVFGCGDKNWATTYQKVPAFIDETLAAKGAENIADRGEADASDDFEGTYEEWREHMWSDVAAYFNLDIENSEDNKSTLSLQFVDSAADMPLAKMHGAFSTNVVASKELQQPGSARSTRHLEIELPKEASYQEGDHLGVIPRNYEGTVNRVTARFGLDASQQIRLEAEEEKLAHLPLAKTVSVEELLQYVELQDPVTRTQLRAMAAKTVCPPHKVELEALLEKQAYKEQVLAKRLTMLELLEKYPACEMKFSEFIALLPSIRPRYYSISSSPRVDEKQASITVSVVSGEAWSGYGEYKGIASNYLAELQEGDTITCFISTPQSEFTLPKDPETPLIMVGPGTGVAPFRGFVQARKQLKEQGQSLGEAHLYFGCRSPHEDYLYQEELENAQSEGIITLHTAFSRMPNQPKTYVQHVMEQDGKKLIELLDQGAHFYICGDGSQMAPAVEATLMKSYADVHQVSEADARLWLQQLEEKGRYAKDVWAG
modifications: mutant P450 35-E11 protein sequence
For B1, the “% rel. act.” value in data set [1] is recorded as 100.0%; in data set [2] it was 93.7%; in data set [3] it was 13.5%; in data set [6], 75.6%; in data set [7] it was 81.4%. Moreover, the TTN in data set [1] is listed as 6350 ± 384; in data set [2], 5950 ± 323; in data set [3] it was 860 ± 223; in data set [4] it was 5150 ± 104; in data set [6], 4800 ± 174; in data set [7], 5170 ± 148. In addition, in data set [5] (chloromethane, cofactor regeneration system), the “colorimetric response (Purpald)” value is “specific colorimetric response”.

B2: Wild-type BM-3: wild-type cytochrome P450 BM-3 from Bacillus megaterium, SEQ ID NO:1 (protein, listed as Bacillus megaterium)
chain: TIKEMPQPKTFGELKNLPLLNTDKPVQALMKIADELGEIFKFEAPGRVTRYLSSQRLIKEACDESRFDKNLSQALKFVRDFAGDGLFTSWTHEKNWKKAHNILLPSFSQQAMKGYHAMMVDIAVQLVQKWERLNADEHIEVPEDMTRLTLDTIGLCGFNYRFNSFYRDQPHPFITSMVRALDEAMNKLQRANPDDPAYDENKRQFQEDIKVMNDLVDKIIADRKASGEQSDDLLTHMLNGKDPETGEPLDDENIRYQIITFLIAGHETTSGLLSFALYFLVKNPHVLQKAAEEAARVLVDPVPSYKQVKQLKYVGMVLNEALRLWPTAPAFSLYAKEDTVLGGEYPLEKGDELMVLIPQLHRDKTIWGDDVEEFRPERFENPSAIPQHAFKPFGNGQRACIGQQFALHEATLVLGMMLKHFDFEDHTNYELDIKETLTLKPEGFVVKAKSKKIPLGGIPSPSTEQSAKKVRKKAENAHNTPLLVLYGSNMGTAEGTARDLADIAMSKGFAPQVATLDSHAGNLPREGAVLIVTASYNGHPPDNAKQFVDWLDQASADEVKGVRYSVFGCGDKNWATTYQKVPAFIDETLAAKGAENIADRGEADASDDFEGTYEEWREHMWSDVAAYFNLDIENSEDNKSTLSLQFVDSAADMPLAKMHGAFSTNVVASKELQQPGSARSTRHLEIELPKEASYQEGDHLGVIPRNYEGIVNRVTARFGLDASQQIRLEAEEEKLAHLPLAKTVSVEELLQYVELQDPVTRTQLRAMAAKTVCPPHKVELEALLEKQAYKEQVLAKRLTMLELLEKYPACEMKFSEFIALLPSIRPRYYSISSSPRVDEKQASITVSVVSGEAWSGYGEYKGIASNYLAELQEGDTITCFISTPQSEFTLPKDPETPLIMVGPGTGVAPFRGFVQARKQLKEQGQSLGEAHLYFGCRSPHEDYLYQEELENAQSEGIITLHTAFSRMPNQPKTYVQHVMEQDGKKLIELLDQGAHFYICGDGSQMAPAVEATLMKSYADVHQVSEADARLWLQQLEEKGRYAKDVWAG
As to B2, the “% rel. act.” value is listed as 6.3% in data set [1]; 18.8% in data set [2]; 100.0% in data set [3]; 0.0% in data set [4] (TTN normalized to the highest value of the variant's series); 0.0% in data set [6]; 12.5% in data set [7]. The TTN is 10 ± 4 in data set [1]; 30 ± 42 in data set [2]; 160 ± 95 in data set [3]; 0 in data set [4]; 0 in data set [6]; 20 ± 5 in data set [7]. Also, in data set [5] (compared with the other mutants of the study), the “total turnover number on CM” value is “no detectable activity”.
